In article PMC10345191 (NPJ Vaccines, 2023):

What was measured:
[1] = biological target: T1, ConM SOSIP soluble gp140 Env trimer, unmodified (GMP) (HIV-1 (group M consensus)); assay: BLI; settings: both partners purified
T1 construct: copies: 3 + 3

[2] = biological target: T2, EDC cross-linked ConM SOSIP soluble gp140 Env trimer (GMP) (HIV-1 (group M consensus)); assay: BLI; settings: both partners purified
T2 construct: copies: 3 + 3

B1: PGT122 Fab (Fab, V domains shown)
VH: QVHLQESGPGLVKPSETLSLTCNVSGTLVRDNYWSWIRQPLGKQPEWIGYVHDSGDTNYNPSLKSRVHLSLDKSKNLVSLRLTGVTAADSAIYYCATTKHGRRIYGVVAFKEWFTYFYMDVWGKGTSVTVSS
VL: APTFVSVAPGQTARITCGEESLGSRSVIWYQQRPGQAPSLIIYNNNDRPSGIPDRFSGSPGSTFGTTATLTITSVEAGDEADYYCHIWDSRRPTNWVFGEGTTLIVL
notes: source: Freestyle 293F cells, serum-free, purified (HiTrap KappaSelect, Mono S)
Kd [1]: < 1 pM
koff [1]: < 1e-07 s⁻¹
Kd [2]: < 1 pM
koff [2]: < 1e-07 s⁻¹
